From IntAct's records for PubMed 18250304

B1: Endothelial transcription factor GATA-2 (Homo sapiens), P23769 (parent)
chain: MEVAPEQPRWMAHPAVLNAQHPDSHHPGLAHNYMEPAQLLPPDEVDVFFNHLDSQGNPYYANPAHARARVSYSPAHARLTGGQMCRPHLLHSPGLPWLDGGKAALSAAAAHHHNPWTVSPFSKTPLHPSAAGGPGGPLSVYPGAGGGSGGGSGSSVASLTPTAAHSGSHLFGFPPTPPKEVSPDPSTTGAASPASSSAGGSAARGEDKDGVKYQVSLTESMKMESGSPLRPGLATMGTQPATHHPIPTYPSYVPAAAHDYSSGLFHPGGFLGGPASSFTPKQRSKARSCSEGRECVNCGATATPLWRRDGTGHYLCNACGLYHKMNGQNRPLIKPKRRLSAARRAGTCCANCQTTTTTLWRRNANGDPVCNACGLYYKLHNVNRPLTMKKEGIQTRNRKMSNKSKKSKKGAECFEELSKCMQEKSSPFSAAALAGHMAPVGHLPPFSHSGHILPTPTPIHPSSSLSFGHPHPSSMVTAMG

Variants of: B1
Details: with cbp_human CREBBP

| Variant | effect of a mutation on the interaction |
| --- | --- |
| L359V | increasing interaction |
